{
  "source": "paper PMC3630169",
  "key": {"[1]": {"target": "outer surface protein E (OspE) from B. burgdorferi sensu stricto strain N40 (B. burgdorferi sensu stricto strain N40)", "test": "radioligand binding; OspE, FhbA or Tuf coated on microtitre plates (5–25 µg/ml in PBS, 4°C, 12 h), blocked with 0.5% BSA/PBS; ^125I-FH19-20 (50,000 cpm/well) mixed with serial dilutions of FH19-20 mutants; 37°C, 60 min; IC50 from fitted inhibition curves, three experiments in triplicate"}, "[2]": {"target": "FhbA from B. hermsii strain MAN (B. hermsii strain MAN)", "test": "radioligand binding; OspE, FhbA or Tuf coated on microtitre plates (5–25 µg/ml in PBS, 4°C, 12 h), blocked with 0.5% BSA/PBS; ^125I-FH19-20 (50,000 cpm/well) mixed with serial dilutions of FH19-20 mutants; 37°C, 60 min; IC50 from fitted inhibition curves, three experiments in triplicate"}},
  "data": [
    {"substance": "FH19-20 E1198A (from UniProt P08603 1107-1231) (domain or fragment)", "values": [
      {"measurement": "IC50mut/IC50wt", "setting": "[1]", "result": 24.7},
      {"measurement": "IC50mut/IC50wt", "setting": "[2]", "result": 25.1}
    ]},
    {"substance": "FH19-20 R1182A (from UniProt P08603 1107-1231) (domain or fragment)", "values": [
      {"measurement": "IC50mut/IC50wt", "setting": "[1]", "result": 3},
      {"measurement": "IC50mut/IC50wt", "setting": "[2]", "result": 18}
    ]},
    {"substance": "FH19-20 R1215Q (from UniProt P08603 1107-1231) (domain or fragment)", "values": [
      {"measurement": "IC50mut/IC50wt", "setting": "[1]", "result": 33.8},
      {"measurement": "IC50mut/IC50wt", "setting": "[2]", "result": 2}
    ]},
    {"substance": "FH19-20 L1189R (from UniProt P08603 1107-1231) (domain or fragment)", "values": [
      {"measurement": "IC50mut/IC50wt", "setting": "[1]", "result": 2.9},
      {"measurement": "IC50mut/IC50wt", "setting": "[2]", "result": 4.9}
    ]},
    {"substance": "FH19-20 R1203A (from UniProt P08603 1107-1231) (domain or fragment)", "values": [
      {"measurement": "IC50mut/IC50wt", "setting": "[1]", "result": 4.7},
      {"measurement": "IC50mut/IC50wt", "setting": "[2]", "result": 41.9}
    ]},
    {"substance": "FH19-20 W1183L (from UniProt P08603 1107-1231) (domain or fragment)", "values": [
      {"measurement": "IC50mut/IC50wt", "setting": "[1]", "result": 97.1},
      {"measurement": "IC50mut/IC50wt", "setting": "[2]", "result": 66.4}
    ]},
    {"substance": "FH19-20 D1119G (from UniProt P08603 1107-1231) (domain or fragment)", "values": [
      {"measurement": "IC50mut/IC50wt", "setting": "[1]", "result": 0.6},
      {"measurement": "IC50mut/IC50wt", "setting": "[2]", "result": 0.9}
    ]},
    {"substance": "FH19-20 R1206A (from UniProt P08603 1107-1231) (domain or fragment)", "values": [
      {"measurement": "IC50mut/IC50wt", "setting": "[1]", "result": 3.4},
      {"measurement": "IC50mut/IC50wt", "setting": "[2]", "result": 3.1}
    ]},
    {"substance": "FH19-20 W1157L (from UniProt P08603 1107-1231) (domain or fragment)", "values": [
      {"measurement": "IC50mut/IC50wt", "setting": "[1]", "result": 1.4},
      {"measurement": "IC50mut/IC50wt", "setting": "[2]", "result": 1.4}
    ]},
    {"substance": "FH19-20 T1184R (from UniProt P08603 1107-1231) (domain or fragment)", "values": [
      {"measurement": "IC50mut/IC50wt", "setting": "[1]", "result": 1.2},
      {"measurement": "IC50mut/IC50wt", "setting": "[2]", "result": 1.7}
    ]},
    {"substance": "FH19-20 K1188A (from UniProt P08603 1107-1231) (domain or fragment)", "values": [
      {"measurement": "IC50mut/IC50wt", "setting": "[1]", "result": 0.8},
      {"measurement": "IC50mut/IC50wt", "setting": "[2]", "result": 1.6}
    ]},
    {"substance": "FH19-20 R1210A (from UniProt P08603 1107-1231) (domain or fragment)", "values": [
      {"measurement": "IC50mut/IC50wt", "setting": "[1]", "result": 1.3},
      {"measurement": "IC50mut/IC50wt", "setting": "[2]", "result": 1.8}
    ]},
    {"substance": "FH19-20 Q1139A (from UniProt P08603 1107-1231) (domain or fragment)", "values": [
      {"measurement": "IC50mut/IC50wt", "setting": "[1]", "result": 1.2},
      {"measurement": "IC50mut/IC50wt", "setting": "[2]", "result": 1.1}
    ]},
    {"substance": "FH19-20 K1186A (from UniProt P08603 1107-1231) (domain or fragment)", "values": [
      {"measurement": "IC50mut/IC50wt", "setting": "[1]", "result": 0.2},
      {"measurement": "IC50mut/IC50wt", "setting": "[2]", "result": 0.5}
    ]}
  ]
}
